From patent publication US20230287145A1 (Hoffmann-La Roche, published 2023)
Residue numbers refer to the chain shown, from its start. Names and notes keep the numbering of the source.

B1: Humanized variant H3L3 of anti-idiotypic antibody 4.24.72 (IgG) (antibody, V domains shown)
VH: QVQLVQSGSELKKPGASVKVSCKASGYTVTDYSMNWVRQAPGQGLEWMGWINTETGEPRYTQGFKGRFVFSLDTSVSTAYLQISSLKAEDTAVYYCAREGDYDVFDYWGQGTLVTVSS
VL: DIVMTQSPDSLAVSLGERATINCRASKSVSTSSYSYMHWYQQKPGQPPKLLIKYVSYLESGVPDRFSGSGSGTDFTLTISSLQAEDVAVYYCQQSREFPYTFGQGTKLEIK
notes: Produced and purified as IgG; also called Mask humanization variant H3L3
B2: Humanized variant H7L5 of anti-idiotypic antibody 4.24.72 (IgG) (antibody, V domains shown)
VH: QVQLVQSGAEVKKPGASVKVSCKASGYTVTDYSMNWVRQAPGQGLEWMGWINTETGEPRYTDDFKGRVTMTRDTSISTAYMELSRLRSDDTAVYYCAREGDYDVFDYWGQGTLVTVSS
VL: B1 VL with K53Y, Q94H
notes: Produced and purified as IgG; also called Mask humanization variant H7L5
B3: Anti-CD3 antibody clone P035.093 in monovalent human IgG1 format (antibody, V domains shown)
VH: EVQLLESGGGLVQPGGSLRLSCAASGFTFSSYAMNWVRQAPGKGLEWVSRIRSKYNNYATYYADSVKGRFTISRDDSKNTLYLQMNSLRAEDTAVYYCVRASNFPASYVSYFAYWGQGTLVTVSS
VL: QAVVTQEPSLTVSPGGTVTLTCGSSTGAVTTSNYANWVQEKPGQAFRGLIGGTNKRAPGTPARFSGSLLGGKAALTLSGAQPEDEAEYYCALWYSNLWVFGGGTKLTVL
notes: Monovalent human IgG1 with crossed VH and VL domains; knob-into-hole; P329G L234A L235A; also called P035.093 (monovalent IgG)
B4: CD3orig in monovalent human IgG1 format (antibody, V domains shown)
VH: not shown
VL: B3 VL
notes: Monovalent human IgG1 with crossed VH and VL domains; knob-into-hole; P329G L234A L235A; also called CD3orig (monovalent IgG)
B5: Anti-CD3 antibody clone P033.078 in monovalent human IgG1 format (antibody, V domains shown)
VH: B3 VH with S30E, N57E, A106S, Y108F, A113G
VL: B3 VL
notes: knob-into-hole; P329G L234A L235A; also called P033.078 (monovalent IgG)
B6: TYRP1 TCB containing the parental CD3 binder CD3orig (bispecific antibody, human IgG1, kappa, L234A L235A)
heavy 1: not shown
heavy 2: QVQLVQSGAEVKKPGASVKVSCKASGFNIKDYFLHWVRQAPGQGLEWMGWINPDNGNTVYAQKFQGRVTMTADTSTSTVYMELSSLRSEDTAVYYCTRRDYTYEKAALDYWGQGTLVTVSSASTKGPSVFPLAPSSKSTSGGTAALGCLVEDYFPEPVTVSWNSGALTSGVHTFPAVLQSSGLYSLSSVVTVPSSSLGTQTYICNVNHKPSNTKVDEKVEPKSCDKTHTCPPCPAPEAAGGPSVFLFPPKPKDTLMISRTPEVTCVVVDVSHEDPEVKFNWYVDGVEVHNAKTKPREEQYNSTYRVVSVLTVLHQDWLNGKEYKCKVSNKALGAPIEKTISKAKGQPREPQVCTLPPSRDELTKNQVSLSCAVKGFYPSDIAVEWESNGQPENNYKTTPPVLDSDGSFFLVSKLTVDKSRWQQGNVFSCSVMHEALHNHYTQKSLSLSP
light 1: DIQMTQSPSSLSASVGDRVTITCRASGNIYNYLAWYQQKPGKVPKLLIYDAKTLADGVPSRFSGSGSGTDFTLTISSLQPEDVATYYCQHFWSLPFTFGQGTKLEIKRTVAAPSVFIFPPSDRKLKSGTASVVCLLNNFYPREAKVQWKVDNALQSGNSQESVTEQDSKDSTYSLSSTLTLSKADYEKHKVYACEVTHQGLSSPVTKSFNRGEC
light 2: EVQLLESGGGLVQPGGSLRLSCAASGFTFSTYAMNWVRQAPGKGLEWVSRIRSKYNNYATYYADSVKGRFTISRDDSKNTLYLQMNSLRAEDTAVYYCVRHGNFGNSYVSWFAYWGQGTLVTVSSASVAAPSVFIFPPSDEQLKSGTASVVCLLNNFYPREAKVQWKVDNALQSGNSQESVTEQDSKDSTYSLSSTLTLSKADYEKHKVYACEVTHQGLSSPVTKSFNRGEC
notes: also called CD3orig in TCB format
B7: TYRP1 TCB containing optimized anti-CD3 antibody clone P004.042 (bispecific antibody, human IgG1, kappa, L234A L235A)
heavy 1: not shown
heavy 2: B6 heavy 2
light 1: B6 light 1
light 2: EVQLLESGGGLVQPGGSLRLSCAASGFQFDNYAMNWVRQAPGKGLEWVSRIRTKYNEYATYYADSVKGRFTISRDDSKNTLYLQMNSLRAEDTAVYYCVRASNFPQSYVSYFGYWGQGTLVTVSSASVAAPSVFIFPPSDEQLKSGTASVVCLLNNFYPREAKVQWKVDNALQSGNSQESVTEQDSKDSTYSLSSTLTLSKADYEKHKVYACEVTHQGLSSPVTKSFNRGEC
notes: 2+1 IgG CrossFab, inverted, with charge modifications; knob-into-hole, P329G L234A L235A; also called CD3opt (P004.042)
B8: TYRP1 TCB containing optimized anti-CD3 antibody clone P021.045 (bispecific antibody, human IgG1, kappa, L234A L235A)
heavy 1: not shown
heavy 2: B6 heavy 2
light 1: B6 light 1
light 2: B6 light 2 with T31S, H101A, G102S, G105P, N106S, W111Y
notes: 2+1 IgG CrossFab, inverted, with charge modifications; knob-into-hole, P329G L234A L235A; also called CD3opt (P021.045)
B9: TYRP1 TCB containing optimized anti-CD3 antibody clone P035.064 (bispecific antibody, human IgG1, kappa, L234A L235A)
heavy 1: not shown
heavy 2: B6 heavy 2
light 1: B6 light 1
light 2: B7 light 2 with Q28D, T53S, Y55H, E57G, Q106S
notes: 2+1 IgG CrossFab, inverted, with charge modifications; knob-into-hole, P329G L234A L235A; also called CD3opt (P035.064)
B10: TYRP1 TCB containing optimized anti-CD3 antibody clone P035.093 (bispecific antibody, human IgG1, kappa, L234A L235A)
heavy 1: not shown
heavy 2: B6 heavy 2
light 1: B6 light 1
light 2: B6 light 2 with T31S, H101A, G102S, G105P, N106A, W111Y
notes: 2+1 IgG CrossFab, inverted, with charge modifications; knob-into-hole, P329G L234A L235A; also called CD3opt (P035.093); CD3 P035.093

What was measured:
[1] = molecular target: T1, biotinylated anti-human CD3 IgG (anti-CD3 P035.093) (biotinylated (site not stated)); assay: SPR; biotinylated anti-CD3 P035.093 IgG on CAP chip, anti-idiotypic IgG at 1 µg/ml; response normalised to anti-human IgG surface and to the unstressed sample; after 14 d at 37 °C pH 7.4
T1 construct: IgG format of this reagent is not described further; immobilised on a CAP chip; also called CD3 IgG (P035.093)
Method: Therefore, they were analyzed for thermal stability and remaining target binding after 14 d stress conditions (40° C. at pH6.0 or 37° C. at pH7.4).
(§1) Flow cell 1 was kept as mock surface. […] Dissociation was monitored for 30 s, the flow rate was set to 5 μl/min. The CAP chip was regenerated by injecting a mix of NaOH and Guadinium-hydrochloride for 120 s, provided in the biotin capture kit. Bulk refractive index differences were corrected by subtracting the response obtained from flow cell 1 (mock surface).

[2] = molecular target: T1, biotinylated anti-human CD3 IgG …; assay: SPR; biotinylated anti-CD3 P035.093 IgG on CAP chip, anti-idiotypic IgG at 1 µg/ml; response normalised to anti-human IgG surface and to the unstressed sample; after 14 d at 40 °C pH 6.0
Method: as §1

[3] = molecular target: T2, Human CD3ε stalk-Fc(knob)-Avi/CD3δ stalk-Fc(hole) (human); assay: SPR, Biacore T200, 25 °C; monovalent IgG captured by anti-PG antibody on C1 chip, CD3ε/δ-Fc as analyte; triplicates
T2 construct: Heterodimeric Fc fusion; also called human CD3ε/δ; Human CD3 epsilon stalk-Fc(knob)-Avi
Method: (§2) Kinetic constants were derived using the Biacore T200 Evaluation Software (GE Healthcare Life Sciences), to fit rate equations for 1:1 Langmuir binding by numerical integration. The half-life (t_{1/2}) of the interaction was calculated using the formula t_{1/2}=ln 2/koff.
(§3) To analyze the interaction to CD3, IgG molecules were captured for 240 s at 50 nM with a flow rate of 5 μl/min. Human and cynomolgus CD3ε stalk-Fc(knob)-Avi/CD3δ-stalk-Fc(hole) were passed at a concentration of 0.061-250 nM with a flow rate of 30 μl/min through the flow cells for 300 s. The dissociation was monitored for 800 s.

[4] = molecular target: T3, Cynomolgus CD3ε stalk-Fc(knob)-Avi/CD3δ stalk-Fc(hole) (cynomolgus); assay: as above
T3 construct: Heterodimeric Fc fusion; also called cynomolgus CD3ε/δ
Method: as §2, §3

[5] = molecular target: T2, Human CD3ε stalk-Fc(knob)-Avi/CD3δ …; assay: SPR, biotinylated human CD3ε/δ on SA chip, monovalent IgG; response normalised to anti-huIgG capture and referenced to the unstressed sample; after 2 weeks at pH 6.0/40 °C
Method: (§4) All SPR experiments were performed on a Biacore T200 instrument (GE Healthcare) at 25° C. with HBS-P+ (10 mM HEPES, 150 mM NaCl pH 7.4, 0.05% Surfactant P20) as running and dilution buffer. Biotinylated human CD3ε/δ (see Example 3, SEQ ID NOs 41 and 42) as well as biotinylated anti-huIgG (Capture Select, Thermo Scientific, #7103262100) were immobilized on a Series S Sensor Chip SA (GE Healthcare, #29104992), resulting in surface densities of at least 1000 resonance units (RU). Anti-CD3 antibodies with a concentration of 2 μg/ml were injected for 30 s at a flow rate of 5 μl/min, and dissociation was monitored for 120 s. The surface was regenerated by injecting 10 mM glycine pH 1.5 for 60 s. Bulk refractive index differences were corrected by subtracting blank injections and by subtracting the response obtained from a blank control flow cell. For evaluation, the binding response 5 seconds after injection end was taken. To normalize the binding signal, the CD3 binding was divided by the anti-huIgG response (the signal (RU) obtained upon capture of the CD3 antibody on the immobilized anti-huIgG antibody). The relative binding activity was calculated by referencing each temperature stressed sample to the corresponding, non-stressed sample.

[6] = molecular target: T2, Human CD3ε stalk-Fc(knob)-Avi/CD3δ …; assay: SPR, Biacore T200, 25 °C; monovalent IgG captured by anti-PG antibody on C1 chip, CD3ε/δ-Fc as analyte; 1:1 Langmuir fit; triplicates
Method: as §2, §3

[7] = molecular target: T3, Cynomolgus CD3ε stalk-Fc(knob)-Avi/CD3δ …; assay: as above
Method: as §2, §3

[8] = molecular target: T2, Human CD3ε stalk-Fc(knob)-Avi/CD3δ …; assay: SPR, biotinylated human CD3ε/δ on SA chip, monovalent IgG; response normalised to anti-huIgG capture and referenced to the unstressed sample; after 2 weeks at pH 7.4/37 °C
Method: as §4

[9] = molecular target: T2, Human CD3ε stalk-Fc(knob)-Avi/CD3δ …; assay: SPR, monovalent IgG format
[10] = molecular target: T2, Human CD3ε stalk-Fc(knob)-Avi/CD3δ …; assay: SPR, biotinylated human CD3ε/δ on SA chip, TCB at 2 µg/ml; response normalised to anti-huIgG capture and referenced to the unstressed sample; after 2 weeks at pH 6.0/40 °C
Method: (§5) In order to assess the effect of the deamidation site removal and its effect on the stability of the antibodies, the optimized anti-CD3 antibodies (in TCB format) were incubated for 14 days at 37° C., pH 7.4 and at 40° C., pH 6 and further analyzed by SPR for their binding capability to human CD3ε/δ. Samples stored at −80° C. pH 6 were used as reference. The reference samples and the samples stressed at 40° C. were in 20 mM His, 140 mM NaCl, pH 6.0, and the samples stressed at 37° C. in PBS, pH 7.4, all at a concentration of 1.0 mg/ml. After the stress period (14 days) samples in PBS were dialyzed back to 20 mM His, 140 mM NaCl, pH 6.0 for further analysis.
as §4

[11] = molecular target: T2, Human CD3ε stalk-Fc(knob)-Avi/CD3δ …; assay: SPR, biotinylated human CD3ε/δ on SA chip, TCB at 2 µg/ml; response normalised to anti-huIgG capture and referenced to the unstressed sample; after 2 weeks at pH 7.4/37 °C
Method: as §5, §4

T3 sequence (chain, as listed by the source mutant limits assumed, chain 1 of 2): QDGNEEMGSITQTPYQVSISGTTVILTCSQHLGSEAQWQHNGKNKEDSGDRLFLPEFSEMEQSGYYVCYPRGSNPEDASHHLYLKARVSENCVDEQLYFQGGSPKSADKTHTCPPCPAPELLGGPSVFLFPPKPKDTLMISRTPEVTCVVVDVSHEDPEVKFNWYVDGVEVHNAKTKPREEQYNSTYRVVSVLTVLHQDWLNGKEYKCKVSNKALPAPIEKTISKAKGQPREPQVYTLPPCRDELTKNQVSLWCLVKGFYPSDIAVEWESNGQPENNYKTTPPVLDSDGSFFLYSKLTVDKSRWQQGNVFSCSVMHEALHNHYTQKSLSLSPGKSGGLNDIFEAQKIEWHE
T3 sequence (chain, as listed by the source mutant limits assumed, chain 2 of 2): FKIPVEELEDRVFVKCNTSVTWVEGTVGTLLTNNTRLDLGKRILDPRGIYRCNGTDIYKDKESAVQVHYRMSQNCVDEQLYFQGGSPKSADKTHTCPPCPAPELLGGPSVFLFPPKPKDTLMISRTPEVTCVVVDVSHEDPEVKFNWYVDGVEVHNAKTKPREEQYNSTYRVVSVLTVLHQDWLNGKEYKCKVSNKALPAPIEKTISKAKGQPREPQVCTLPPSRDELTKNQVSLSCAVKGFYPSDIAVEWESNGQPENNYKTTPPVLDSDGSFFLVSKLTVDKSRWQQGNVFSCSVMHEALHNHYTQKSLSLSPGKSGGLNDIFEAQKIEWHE

Row | Binder | t1/2 [3] [min] | binding activity [%] [5] [%] | Kd [6] [nM] | binding activity [%] [10] [%] | binding activity [%] [11] [%] | further results
1 | B1 | – | – | – | – | – | Rel. active concentration [%] [1]: 87%; Rel. active concentration [%] [2]: 97%
2 | B2 | – | – | – | – | – | Rel. active concentration [%] [1]: 80%; Rel. active concentration [%] [2]: 98%
3 | B3 | 8.25 | 100 | 0.456 | – | – | t1/2 [4]: 11.8 min; Kd [7]: 0.224 nM
4 | B4 | 3.98 | 97 | 4.94 | – | – | koff [6]: 0.0029 s⁻¹; kon [6]: 587000 M⁻¹ s⁻¹; binding activity [%] [8]: 60%
5 | B5 | 8.69 | 98 | 0.771 | – | – | t1/2 [4]: 11.1 min; fold of binding half-life over CD3orig [9]: > 2 fold; koff [6]: 0.00133 s⁻¹; kon [6]: 1.73e+06 M⁻¹ s⁻¹; Kd [7]: 0.403 nM; koff [7]: 0.00104 s⁻¹; kon [7]: 2.6e+06 M⁻¹ s⁻¹; binding activity [%] [8]: 95%
6 | B6 | – | – | – | 95 | 65 | –
7 | B7 | – | – | – | 98 | 98 | –
8 | B8 | – | – | – | 99 | 95 | –
9 | B9 | – | – | – | 97 | 96 | –
10 | B10 | – | – | – | 97 | 95 | –
